Assay results taken from patent publication US20170145092A1 (CHINA SYNTHETIC RUBBER, published 2017).

T1: recombinant PLVAP51-442 protein (human, UniProt Q9BX97 51-442)
T1 construct: also called recombinant PLVAP protein; recombinant human PLVAP protein
T1 sequence: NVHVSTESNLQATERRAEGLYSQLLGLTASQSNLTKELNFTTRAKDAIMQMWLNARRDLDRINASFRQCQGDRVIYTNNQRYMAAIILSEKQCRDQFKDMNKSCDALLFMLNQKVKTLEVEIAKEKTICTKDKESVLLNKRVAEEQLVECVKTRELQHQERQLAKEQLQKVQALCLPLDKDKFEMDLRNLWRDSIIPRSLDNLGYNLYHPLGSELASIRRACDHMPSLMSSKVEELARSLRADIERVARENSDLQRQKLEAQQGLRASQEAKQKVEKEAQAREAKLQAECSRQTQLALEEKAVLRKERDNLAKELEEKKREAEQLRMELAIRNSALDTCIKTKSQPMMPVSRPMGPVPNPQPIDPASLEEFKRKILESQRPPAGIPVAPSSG


Target: T1, recombinant PLVAP51-442 protein
Assay: ANTQ300 quartz crystal microbalance
Description: Binding affinities of KFCC-GY4 and KFCC-GY5 anti-PLVAP monoclonal antibodies were measured at the ANT Technology Co., Ltd. (Taipei, Taiwan) using ANTQ300 quartz crystal microbalance technology (Lin S., et al. J Immunol Methods 239:121-124 (2000)).

Binder | Kd
KFCC-GY5 monoclonal antibody (antibody, V domains shown, Mouse monoclonal antibody from a hybridoma, purified by Protein G; also called KFCC-GY5 mAb; KFCC-GY5 monoclonal anti-PLVAP antibody) VH: QVQLQQPGAELVRPGASVKLSCKASGYTFTSNYINWVKQRPGQGLEWIGNIYPSDGFTNYNQKFKDRATLTVDKSSSTAYMQLSSPTSEDSAVYYCTRNFDVWGAGTTVTVSS VL: DVVMTQTPLSLPVSLGDQASISCRSSQSLVHSNGNTYLQWYLQKPGQSPKLLIYTVSNRFSGVPDRFSGSGSGPDFTLKISRVEAEDLGVYFCSQSTHVPFTFGSGTKLEIK | 41 nM
KFCC-GY4 monoclonal antibody (antibody, V domains shown, Mouse monoclonal antibody from a hybridoma, purified by Protein G; also called KFCC-GY4 mAb; KFCC-GY4 monoclonal anti-PLVAP antibody) VH: EVQLQQSGAEFVRSGASVKLSCTASGFNIKDYYIHWVKQRPEQGLEWIGWIDPENGDIEYAPKFQGKATMTADTSSNTAYLQFSSLTSEDTAVYYCLYQEGSWGQGTTLTVSS VL: not shown | 60 nM
